Changes are numbered by the printed parent chain.
B1: 42-10 DBM1 (dsDNA)
DNA 1: AGACGCTGCTC
DNA 2: GAGCAGCGTCT
B2: 43-8 DBM1 (dsDNA)
DNA 1: AGAGTGAGGAC
DNA 2: GTCCTCACTCT

Key:
Assay in all cases: FP; fluorescence anisotropy; Zn2+, 25 C
Conditions in all cases: tags: N-terminal MBP; C-terminal GS linker + syntrophin ligand S5 (VKESLV)
[1] = molecular target: T1, 42-10 (ZF2) high affinity synTF (artificial)
T1 chain: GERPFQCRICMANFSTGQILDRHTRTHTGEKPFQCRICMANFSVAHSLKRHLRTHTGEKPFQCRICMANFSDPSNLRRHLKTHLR
Procedure: (§1) All assays were conducted in 20 mM Tris, pH 7.5, 100 mM […], 50 μM ZnCl2 buffer at 25° C. Proteins, probes, and competitor oligos were added to a final volume of 300 μL. Probes were used at 10 nM in all experiments. For complex assembly experiments (FIG. 1C), indicated concentrations of MBP-ZF₄₃₋₈ harboring a VSKESLV* ligand (SEQ ID NO: 120) (see e.g., FIG. 5A-FIG. 5B, FIG. 7A-FIG. 7B) were titrated against 5 μM concentrations of clamp. Mixtures were allowed to equilibrate at 25° C. for 10 min in Costar black 96-well plates prior to reading. Fluorescence anisotropy (FA) measurements were made at 494 nm using a SpectraMax M5 (Molecular Devices) fluorescence plate reader. For all measurements, anisotropy (r) was calculated using the following equation, wherein I_{∥} and I_{⊥} are parallel and perpendicular fluorescence, respectively:
(§2) TF-DBM binding constants were measured in vitro by fluorescence anisotropy (FA). Recombinant proteins were purified and DBM oligos prepared as described herein. […] Affinities for the interaction were measured as a function of the increase in fluorescence anisotropy resulting from binding of the fusion to a fluorescently labeled (FITC) oligo probe (data not shown). Oligo probe binding to ZF affinity variants was measured. MBP-ZF was titrated against 10 nM oligo probe. […] Kd values were extracted by fitting data to a quadratic binding equation (data not shown). Competition binding experiments were performed to measure binding constants for DBM affinity variants. […] Competitor oligo Kₐ values were extracted by fitting data (converted to fraction probe bound) to a cubic equation describing competitive binding (see e.g., FIG. 6). Sequences for both sets of DBM affinity variants are listed on the right of FIG. 6.

[2] = molecular target: T2, 42-10 (ZF2) low affinity synTF (artificial, R-to-A backbone (low affinity allele, already in ref))
T2 chain: T1 chain with R3A
Procedure: as §1, §2

[3] = molecular target: T3, 43-8 (ZF1) low affinity synTF (artificial, R-to-A backbone (low affinity allele, already in ref))
T3 chain: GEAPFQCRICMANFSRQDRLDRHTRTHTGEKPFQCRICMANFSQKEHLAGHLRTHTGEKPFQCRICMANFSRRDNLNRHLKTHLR
Procedure: as §1, §2

[4] = molecular target: T4, 43-8 (ZF1) high affinity synTF (artificial)
T4 chain: T3 chain with A3R
Procedure: as §1, §2

Binder | Kd [1] [nM] | Kd [2] [nM] | Kd [3] [nM] | Kd [4] [nM]
B1 | 2.4 | 15 | – | –
B2 | – | – | 13.6 | 6.5
